PMC4809600, “The Influence of Chronic Wound Extracts on Inflammatory Cytokine and Histatin Stability” (PLoS ONE, 2016)

Legend:
[1] = Stability in PBS, capillary zone electrophoresis; assay type: physicochemical; conditions: 1 mg/ml in PBS mixed 1:1 with PBS, 37°C, 96 h, CZE, UV 200 nm, ratio to imidazole internal standard, 0 h = 100%
Description: To determine the stability of the different peptides in CWE, histatins and cytokines were dissolved in PBS at 1 mg/ml. Histatins and cytokines were incubated in a 1:1 ratio with (i) PBS, (ii) CWE in PBS, or (iii) CWE in PBS containing PIC, in a total volume of 25 μl. Imidazole (Sigma-Aldrich) was added as an internal standard, with a final concentration of 100 μg/ml. The mixtures were incubated at 37°C, and samples were taken at 0, 24, 48, 72 and 96 h. For histatins containing mixtures, additional samples were taken after 2, 4, 8 and 16 h of incubation.
The samples were analyzed with a BioFocus 2000 capillary zone electrophoresis system (Bio-Rad Laboratories, Hercules, CA, USA) equipped with an uncoated fused-silica capillary of internal diameter 50 μm and a length of 24 cm. Samples were loaded by pressure injection (5 psi/sec). Separation was performed at 10 kV (cathode at the detector side) at 20°C using 0.1 M phosphate buffer (pH 2.5) as electrolyte and monitored continuously at 200 nm. Peaks were quantified with the BioFocus Integrator software. In order to quantify the percentage of intact peptides remaining after incubation with CWE, the ratios of histatins, rhIL-6 or rhCXCL8 to internal standard was set at 100% at 0h, and the ratios at the other incubation time points were related to this.

[2] = Stability in chronic wound extracts (CWE), capillary zone electrophoresis; assay type: in vitro ADME, human; conditions: 37°C, CZE, 0 h = 100%; for Percentage intact, CWE 24h / Percentage intact, CWE 48h / Percentage intact, CWE 72h / Percentage intact, CWE 96h: 1 mg/ml in PBS mixed 1:1 with CWE (1 mg/ml protein, pool of 5 donors) in PBS, UV 200 nm, ratio to imidazole; for Starting material remaining intact after 96 h in CWE: 1 mg/ml in PBS mixed 1:1 with CWE (1 mg/ml protein, pools of 5 donors), mean of 3 independent experiments
Outline: (§1)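 Peptides or cytokines (1 mg/ml stock) mixed 1:1 with PBS or pooled chronic-wound extract (1 mg/ml protein, three pools of five donors), ±protease inhibitor cocktail, at 37 °C for up to 96 h. Analyzed by capillary zone electrophoresis (pH 2.5 phosphate, 200 nm), with peak ratio to imidazole standard relative to 0 h as % intact.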

[3] = Stability in CWE with protease inhibitor cocktail (PIC), capillary zone electrophoresis; assay type: in vitro ADME, human; conditions: 1 mg/ml in PBS mixed 1:1 with CWE (1 mg/ml protein, pool of 5 donors) in PBS containing PIC (final 1:140 v/v), 37°C, CZE, ratio to imidazole, 0 h = 100%
Outline: as §1

Substance: CXCL8 CS: rhCXCL8 from Cell Systems, Cat nr. CS-C1069, CXCL8 (1–77)
- Percentage intact, PBS 96h ([1]; experiment 1 of 3): 91.5892%
- Percentage intact, PBS 96h ([1]; experiment 2 of 3): 91.4833%
- Percentage intact, PBS 96h ([1]; experiment 3 of 3): 87.1812%
- Percentage intact, CWE 24h ([2]; experiment 1 of 3): 88.8666%
- Percentage intact, CWE 24h ([2]; experiment 2 of 3): 92.8064%
- Percentage intact, CWE 24h ([2]; experiment 3 of 3): 96.6818%
- Percentage intact, CWE 48h ([2]; experiment 1 of 3): 87.3559%
- Percentage intact, CWE 48h ([2]; experiment 2 of 3): 86.1407%
- Percentage intact, CWE 48h ([2]; experiment 3 of 3): 89.0325%
- Percentage intact, CWE 72h ([2]; experiment 1 of 3): 83.3251%
- Percentage intact, CWE 72h ([2]; experiment 2 of 3): 83.9414%
- Percentage intact, CWE 72h ([2]; experiment 3 of 3): 84.6704%
- Percentage intact, CWE 96h ([2]; experiment 1 of 3): 78.0414%
- Percentage intact, CWE 96h ([2]; experiment 2 of 3): 80.0263%
- Percentage intact, CWE 96h ([2]; experiment 3 of 3): 80.2041%
- Starting material remaining intact after 96 h in CWE [2]: 79%
- Percentage intact, CWE + PIC 24h ([3]; experiment 1 of 3): 104.747%
- Percentage intact, CWE + PIC 24h ([3]; experiment 2 of 3): 99.4146%
- Percentage intact, CWE + PIC 24h ([3]; experiment 3 of 3): 99.4369%
- Percentage intact, CWE + PIC 48h ([3]; experiment 1 of 3): 98.6704%
- Percentage intact, CWE + PIC 48h ([3]; experiment 2 of 3): 94.4506%
- Percentage intact, CWE + PIC 48h ([3]; experiment 3 of 3): 91.0713%
- Percentage intact, CWE + PIC 72h ([3]; experiment 1 of 3): 96.1244%
- Percentage intact, CWE + PIC 72h ([3]; experiment 2 of 3): 88.7106%
- Percentage intact, CWE + PIC 72h ([3]; experiment 3 of 3): 87.6839%
- Percentage intact, CWE + PIC 96h ([3]; experiment 1 of 3): 87.7388%
- Percentage intact, CWE + PIC 96h ([3]; experiment 2 of 3): 86.0248%
- Percentage intact, CWE + PIC 96h ([3]; experiment 3 of 3): 85.3459%

Substance: IL-6 BioV: rhIL-6 from Biovision Inc, Cat nr. 4143
- Percentage intact, PBS 96h ([1]; experiment 1 of 3): 98.6817%
- Percentage intact, PBS 96h ([1]; experiment 2 of 3): 79.9235%
- Percentage intact, PBS 96h ([1]; experiment 3 of 3): 96.6267%
- Percentage intact, CWE 24h ([2]; experiment 1 of 3): 86.2456%
- Percentage intact, CWE 24h ([2]; experiment 2 of 3): 92.3596%
- Percentage intact, CWE 24h ([2]; experiment 3 of 3): 87.2422%
- Percentage intact, CWE 48h ([2]; experiment 1 of 3): 74.2431%
- Percentage intact, CWE 48h ([2]; experiment 2 of 3): 71.0486%
- Percentage intact, CWE 48h ([2]; experiment 3 of 3): 85.9071%
- Percentage intact, CWE 72h ([2]; experiment 1 of 3): 64.7766%
- Percentage intact, CWE 72h ([2]; experiment 2 of 3): 67.0796%
- Percentage intact, CWE 72h ([2]; experiment 3 of 3): 78.8792%
- Percentage intact, CWE 96h ([2]; experiment 1 of 3): 48.2486%
- Percentage intact, CWE 96h ([2]; experiment 2 of 3): 62.2324%
- Percentage intact, CWE 96h ([2]; experiment 3 of 3): 63.6069%
- Starting material remaining intact after 96 h in CWE [2]: 58%
- Percentage intact, CWE + PIC 24h ([3]; experiment 1 of 3): 100.779%
- Percentage intact, CWE + PIC 24h ([3]; experiment 2 of 3): 107.202%
- Percentage intact, CWE + PIC 24h ([3]; experiment 3 of 3): 97.2326%
- Percentage intact, CWE + PIC 48h ([3]; experiment 1 of 3): 100.572%
- Percentage intact, CWE + PIC 48h ([3]; experiment 2 of 3): 97.0586%
- Percentage intact, CWE + PIC 48h ([3]; experiment 3 of 3): 95.2476%
- Percentage intact, CWE + PIC 72h ([3]; experiment 1 of 3): 93.9962%
- Percentage intact, CWE + PIC 72h ([3]; experiment 2 of 3): 96.7281%
- Percentage intact, CWE + PIC 72h ([3]; experiment 3 of 3): 94.831%
- Percentage intact, CWE + PIC 96h ([3]; experiment 1 of 3): 90.2939%
- Percentage intact, CWE + PIC 96h ([3]; experiment 2 of 3): 94.0745%
- Percentage intact, CWE + PIC 96h ([3]; experiment 3 of 3): 94.3747%

Substance: IL-6 CS: rhIL-6 from Cell Systems Biotechnology, Cat nr. CS-C1066
- Percentage intact, PBS 96h ([1]; experiment 1 of 3): 91.7071%
- Percentage intact, PBS 96h ([1]; experiment 2 of 3): 94.938%
- Percentage intact, PBS 96h ([1]; experiment 3 of 3): 88.4799%
- Percentage intact, CWE 24h ([2]; experiment 1 of 3): 87.5606%
- Percentage intact, CWE 24h ([2]; experiment 2 of 3): 96.7909%
- Percentage intact, CWE 24h ([2]; experiment 3 of 3): 93.0609%
- Percentage intact, CWE 48h ([2]; experiment 1 of 3): 82.5586%
- Percentage intact, CWE 48h ([2]; experiment 2 of 3): 90.261%
- Percentage intact, CWE 48h ([2]; experiment 3 of 3): 82.6368%
- Percentage intact, CWE 72h ([2]; experiment 1 of 3): 76.7459%
- Percentage intact, CWE 72h ([2]; experiment 2 of 3): 64.558%
- Percentage intact, CWE 72h ([2]; experiment 3 of 3): 69.7531%
- Percentage intact, CWE 96h ([2]; experiment 1 of 3): 67.9184%
- Percentage intact, CWE 96h ([2]; experiment 2 of 3): 56.1934%
- Percentage intact, CWE 96h ([2]; experiment 3 of 3): 44.5849%
- Starting material remaining intact after 96 h in CWE [2]: 56%
- Percentage intact, CWE + PIC 24h ([3]; experiment 1 of 3): 96.0006%
- Percentage intact, CWE + PIC 24h ([3]; experiment 2 of 3): 88.559%
- Percentage intact, CWE + PIC 24h ([3]; experiment 3 of 3): 95.4415%
- Percentage intact, CWE + PIC 48h ([3]; experiment 1 of 3): 84.6802%
- Percentage intact, CWE + PIC 48h ([3]; experiment 2 of 3): 88.7813%
- Percentage intact, CWE + PIC 48h ([3]; experiment 3 of 3): 87.103%
- Percentage intact, CWE + PIC 72h ([3]; experiment 1 of 3): 88.9677%
- Percentage intact, CWE + PIC 72h ([3]; experiment 2 of 3): 86.585%
- Percentage intact, CWE + PIC 72h ([3]; experiment 3 of 3): 83.9413%
- Percentage intact, CWE + PIC 96h ([3]; experiment 1 of 3): 78.2271%
- Percentage intact, CWE + PIC 96h ([3]; experiment 2 of 3): 83.1651%
- Percentage intact, CWE + PIC 96h ([3]; experiment 3 of 3): 79.7008%
